Test results published in article doi:10.1101/2020.12.09.417477 (bioRxiv, 2020).

Legend:
Test in all cases: pull-down
His-Prs-K182A = His-Prs-K182A (E. coli, UniProt P0A717 1-315, K182A)
His6-Prs = His6-Prs (E. coli, UniProt P0A717 1-315)
His-Prs-K231A = His-Prs-K231A (E. coli, UniProt P0A717 1-315, K231A)
His-PrsK194A = His-PrsK194A (E. coli, UniProt P0A717 1-315, K194A)

binding result (His-Prs-K182A)	binding result (His6-Prs)	binding result (His-Prs-K231A)	binding result (His-PrsK194A)	Binder
binds	binds	binds	binds	CobB (enzyme, E. coli, UniProt P75960 1-279, looked up) MLSRRGHRLSRFRKNKRRLRERLRQRIFFRDKVVPEAMEKPRVLVLTGAGISAESGIRTFRAADGLWEEHRVEDVATPEGFDRDPELVQAFYNARRRQLQQPEIQPNAAHLALAKLQDALGDRFLLVTQNIDNLHERAGNTNVIHMHGELLKVRCSQSGQVLDWTGDVTPEDKCHCCQFPAPLRPHVVWFGEMPLGMDEIYMALSMADIFIAIGTSGHVYPAAGFVHEAKLHGAHTVELNLEPSQVGNEFAEKYYGPASQVVPEFVEKLLKGLKAGSIA
–	binds	–	–	acetylated CobB (enzyme, E. coli, UniProt P75960 1-279, looked up, acetyl-lysines (acetylated in vitro with acetyl phosphate); positions are in Supplementary Table 2) MLSRRGHRLSRFRKNKRRLRERLRQRIFFRDKVVPEAMEKPRVLVLTGAGISAESGIRTFRAADGLWEEHRVEDVATPEGFDRDPELVQAFYNARRRQLQQPEIQPNAAHLALAKLQDALGDRFLLVTQNIDNLHERAGNTNVIHMHGELLKVRCSQSGQVLDWTGDVTPEDKCHCCQFPAPLRPHVVWFGEMPLGMDEIYMALSMADIFIAIGTSGHVYPAAGFVHEAKLHGAHTVELNLEPSQVGNEFAEKYYGPASQVVPEFVEKLLKGLKAGSIA
